Source: US10398755

Target: T1, mouse CLU with C-terminal (His)6 (CLU-His), recombinant secreted clusterin, Q06890
T1 chain: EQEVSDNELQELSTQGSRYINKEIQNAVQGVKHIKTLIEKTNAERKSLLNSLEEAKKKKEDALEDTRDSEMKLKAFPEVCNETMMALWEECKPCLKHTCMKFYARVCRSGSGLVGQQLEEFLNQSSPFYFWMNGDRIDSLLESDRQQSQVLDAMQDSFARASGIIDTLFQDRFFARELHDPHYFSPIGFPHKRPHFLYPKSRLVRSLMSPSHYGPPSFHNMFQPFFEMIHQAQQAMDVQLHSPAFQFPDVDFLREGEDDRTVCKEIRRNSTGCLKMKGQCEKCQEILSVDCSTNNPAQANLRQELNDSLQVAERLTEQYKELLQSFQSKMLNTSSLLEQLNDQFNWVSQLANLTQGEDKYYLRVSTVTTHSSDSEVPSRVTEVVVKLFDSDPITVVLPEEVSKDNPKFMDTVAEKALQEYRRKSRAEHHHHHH

B1: MMP-9, propeptide-cleaved (APMA-processed active MMP-9) (protein)
chain: FQTFKGLKWDHHNITYWIQNYSEDLPRDMIDDAFARAFAVWGEVAPLTFTRVYGPEADIVIQFGVAEHGDGYPFDGKDGLLAHAFPPGAGVQGDAHFDDDELWSLGKGVVIPTYYGNSNGAPCHFPFTFEGRSYSACTTDGRNDGTPWCSTTADYDKDGKFGFCPSERLYTEHGNGEGKPCVFPFIFEGRSYSACTTKGRSDGYRWCATTANYDQDKLYGFCPTRVDATVVGGNSAGELCVFPFVFLGKQYSSCTSDGRRDGRLWCATTSNFDTDKKWGFCPDQGYSLFLVAAHEFGHALGLDHSSVPEALMYPLYSYLEGFPLNKDDIDGIQYLYGRGSKPDPRPPATTTTEPQPTAPPTMCPTIPPTAYPTVGPTVGPTGAPSPGPTSSPSPGPTGAPSPGPTAPPTAGSSEASTESLSPADNPCNVDVFDAIAEIQGALHFFKDGWYWKFLNHRGSPLQGPFLTARTWPALPATLDSAFEDPQTKRVFFFSGRQMWVYTGKTVLGPRSLDKLGLGPEVTHVSGLLPRRLGKALLFSKGRVWRFDLKSQKVDPQSVIRVDKEFSGVPWNSHDIFQYQDKAYFCHGKFFWRVSFQNEVNKVDHEVNQVDDVGYVTYDLLQCP
  digestion of CLU by active MMP-9 (SDS/PAGE, Coomasie staining; gelatin as known substrate): the density of CLU protein, separated as a and 6 subunits, changed little, whereas most high molecular weight gelatin disappeared upon incubation with MMP-9, indicating that CLU is not a substrate for MMP-9 in vitro
